# Reference: patent US20140336116A1 (GLYTECH, published 2014)
# Read-outs that look alike come from different tables or passages of the source. Bridges are numbered along the chain shown (N, C = ends). Where no end group is shown, it is not given here. Side-chain parts run from the residue outwards. disialo(aminoethylamide) = disialo sugar chain with sialic acid carboxy groups modified by aminoethylamino groups; diGlcNAc = diGlcNAc sugar chain; disialo = disialo sugar chain; GlcNAc = N-acetylglucosamine; asialo = not defined here
# B1: S1C(diGlcNAc)-SRIF28 (peptide)
# peptide: C(diGlcNAc)ANSNPAMAPRERKAGCKNFFWKTFTSC
# modifications: disulfide 17-28
# B2: S1-3C(asialo)-SRIF28 (peptide)
# peptide: CCCANSNPAMAPRERKAGCKNFFWKTFTSC
# modifications: Ser1 replaced by three consecutive Cys each with an asialo sugar chain; disulfide Cys17-Cys28
# B3: 3C(disialo)-R-K-SRIF14 (peptide)
# peptide: CCCRKAGCKNFFWKTFTSC
# modifications: disialo sugar chain on each of the three N-terminal Cys of the added Cys-Cys-Cys-Arg-Lys-; disulfide Cys17-Cys28
# B4: S1C(Asn(disialo))-SRIF28 (peptide)
# peptide: C([Asn-disialo])ANSNPAMAPRERKAGCKNFFWKTFTSC
# modifications: disulfide 17-28
# B5: C(disialo)-K-SRIF14 (peptide)
# peptide: C(disialo sugar chain)KAGCKNFFWKTFTSC
# modifications: disulfide 5-16
# B6: S1C(asialo)-SRIF28 (peptide)
# peptide: C(asialo)ANSNPAMAPRERKAGCKNFFWKTFTSC
# modifications: disulfide 17-28; reading uncertain
# B7: S1C(disialo(aminoethylamide))-SRIF28 (peptide)
# peptide: C(disialo(aminoethylamide))ANSNPAMAPRERKAGCKNFFWKTFTSC
# modifications: disulfide 17-28
# B8: C(disialo)-R-K-SRIF14 (peptide)
# peptide: C(disialo sugar chain)RKAGCKNFFWKTFTSC
# modifications: disulfide 6-17
# B9: S1C(GlcNAc)-SRIF28 (peptide)
# peptide: C(GlcNAc)ANSNPAMAPRERKAGCKNFFWKTFTSC
# modifications: disulfide 17-28
# B10: C(disialo)-SRIF14 (peptide)
# peptide: CAGCKNFFWKTFTSC
# modifications: disialo sugar chain on the Cys added before Ala15; disulfide Cys17-Cys28
# B11: S1C(disialo)-SRIF28 (peptide)
# peptide: C(disialo)ANSNPAMAPRERKAGCKNFFWKTFTSC
# modifications: disulfide 17-28
# B12: S1C(disialo)•N5C(disialo)-SRIF28 (peptide)
# peptide: C(disialo)ANSC(disialo)PAMAPRERKAGCKNFFWKTFTSC
# modifications: disulfide 17-28
# B13: S1C(disialo)•N19C(GlcNAc)-SRIF28 (peptide)
# peptide: C(disialo)ANSNPAMAPRERKAGCKC(GlcNAc)FFWKTFTSC
# modifications: disulfide 17-28
# B14: S1C(trisialo)-SRIF28 (peptide)
# peptide: C(trisialo sugar chain)ANSNPAMAPRERKAGCKNFFWKTFTSC
# modifications: disulfide 17-28
# Experiments:
# [1] = target: T1, somatostatin receptor SSTR4 (Human, UniProt P31391 1-388); assay: cell-based or functional assay
# [2] = target: T1, somatostatin receptor SSTR4; assay: cell-based or functional assay; remark: listed apart in the source
# [3] = target: T2, somatostatin receptor SSTR1 (Human, UniProt P30872 1-391); assay: cell-based or functional assay
# [4] = target: T3, somatostatin receptor SSTR3 (Human, UniProt P32745 1-418); assay: cell-based or functional assay
# [5] = target: T4, somatostatin receptor SSTR2 (Human, UniProt P30874 1-369); assay: radioligand competition
# [6] = target: T3, somatostatin receptor SSTR3; assay: cell-based or functional assay; remark: listed apart in the source
# [7] = target: T2, somatostatin receptor SSTR1; assay: cell-based or functional assay; remark: listed apart in the source
# [8] = target: T4, somatostatin receptor SSTR2; assay: cell-based or functional assay
# [9] = target: T1, somatostatin receptor SSTR4; assay: cell-based or functional assay; remark: listed apart in the source
# [10] = target: T4, somatostatin receptor SSTR2; assay: cell-based or functional assay; remark: listed apart in the source
# [11] = target: somatostatin receptor SSTR5 (Human, UniProt P35346 1-364); assay: cell-based or functional assay
# Chain of somatostatin receptor SSTR5 (P35346 whole entry): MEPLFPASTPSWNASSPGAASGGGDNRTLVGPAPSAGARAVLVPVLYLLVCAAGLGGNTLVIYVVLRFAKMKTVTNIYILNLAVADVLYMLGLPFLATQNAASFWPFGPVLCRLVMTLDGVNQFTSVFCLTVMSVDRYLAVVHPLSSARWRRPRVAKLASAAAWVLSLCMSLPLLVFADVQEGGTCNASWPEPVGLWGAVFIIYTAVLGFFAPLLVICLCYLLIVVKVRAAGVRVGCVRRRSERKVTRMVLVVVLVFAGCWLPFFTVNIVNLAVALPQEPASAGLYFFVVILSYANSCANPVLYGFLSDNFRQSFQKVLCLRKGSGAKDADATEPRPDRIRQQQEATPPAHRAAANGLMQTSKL
# T4 sequence (P30874 whole entry): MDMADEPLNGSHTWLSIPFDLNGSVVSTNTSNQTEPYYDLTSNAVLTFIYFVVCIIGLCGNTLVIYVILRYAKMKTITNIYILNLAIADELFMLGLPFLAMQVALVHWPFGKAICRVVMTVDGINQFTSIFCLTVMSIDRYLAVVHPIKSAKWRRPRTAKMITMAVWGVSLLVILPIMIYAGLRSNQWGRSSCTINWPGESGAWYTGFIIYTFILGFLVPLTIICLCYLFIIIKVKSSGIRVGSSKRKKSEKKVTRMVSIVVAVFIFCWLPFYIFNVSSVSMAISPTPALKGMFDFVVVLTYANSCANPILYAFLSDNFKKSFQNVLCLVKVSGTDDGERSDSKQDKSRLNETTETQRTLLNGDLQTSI
# T1 sequence (P31391 whole entry): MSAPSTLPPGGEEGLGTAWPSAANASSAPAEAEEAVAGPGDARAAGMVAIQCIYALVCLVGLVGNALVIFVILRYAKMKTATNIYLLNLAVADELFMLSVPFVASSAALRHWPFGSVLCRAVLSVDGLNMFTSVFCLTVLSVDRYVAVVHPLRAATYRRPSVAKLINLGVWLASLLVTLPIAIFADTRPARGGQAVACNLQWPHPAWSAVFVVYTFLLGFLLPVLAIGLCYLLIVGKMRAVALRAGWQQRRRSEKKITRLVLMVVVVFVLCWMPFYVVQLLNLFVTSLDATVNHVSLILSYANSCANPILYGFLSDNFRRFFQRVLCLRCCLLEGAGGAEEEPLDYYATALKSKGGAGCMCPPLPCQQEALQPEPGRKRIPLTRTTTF
# T2 sequence (P30872 whole entry): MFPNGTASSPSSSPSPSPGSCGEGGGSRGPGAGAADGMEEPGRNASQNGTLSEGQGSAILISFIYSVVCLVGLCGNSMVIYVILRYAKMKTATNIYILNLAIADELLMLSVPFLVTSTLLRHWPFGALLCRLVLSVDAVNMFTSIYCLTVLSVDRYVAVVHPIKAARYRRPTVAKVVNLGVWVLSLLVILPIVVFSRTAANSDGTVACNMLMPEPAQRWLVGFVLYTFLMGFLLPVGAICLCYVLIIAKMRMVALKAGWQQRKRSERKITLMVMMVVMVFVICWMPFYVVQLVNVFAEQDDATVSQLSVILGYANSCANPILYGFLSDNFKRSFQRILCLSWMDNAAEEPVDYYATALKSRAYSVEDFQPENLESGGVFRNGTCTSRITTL
# T3 sequence (P32745 whole entry): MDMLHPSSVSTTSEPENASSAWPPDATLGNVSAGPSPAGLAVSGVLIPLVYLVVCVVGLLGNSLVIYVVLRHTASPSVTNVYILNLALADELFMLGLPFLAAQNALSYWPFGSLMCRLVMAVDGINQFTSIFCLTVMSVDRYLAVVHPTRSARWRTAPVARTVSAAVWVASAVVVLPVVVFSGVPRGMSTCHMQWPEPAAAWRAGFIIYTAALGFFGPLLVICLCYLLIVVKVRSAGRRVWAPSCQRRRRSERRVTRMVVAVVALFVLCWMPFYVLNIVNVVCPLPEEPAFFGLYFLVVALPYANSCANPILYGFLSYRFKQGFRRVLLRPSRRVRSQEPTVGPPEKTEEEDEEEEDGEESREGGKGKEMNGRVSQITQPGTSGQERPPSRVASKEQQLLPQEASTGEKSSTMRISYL
binder,measurement,setting,value
B1,"IC50, cAMP production suppressing action",[1],50 pM
B2,"IC50, cAMP production suppressing action",[1],100 pM
B3,"IC50, cAMP production suppressing action",[2],1600 pM
B4,"IC50, cAMP production suppressing action",[3],2000 pM
B5,"IC50, cAMP production suppressing action",[4],100 pM
B6,IC50,[5],200 pM
B7,"IC50, cAMP production suppressing action",[6],300 pM
same,"IC50, cAMP production suppressing action",[7],1000 pM
same,"IC50, cAMP production suppressing action",[8],100 pM
B8,"IC50, cAMP production suppressing action",[9],50 pM
B9,"IC50, cAMP production suppressing action",[10],40 pM
B10,"IC50, cAMP production suppressing action",[1],100 pM
B11,Ki,[5],269 pM
same,"IC50, cAMP production suppressing action",[9],65 pM
same,"IC50, cAMP production suppressing action",[8],75 pM
B12,"IC50, cAMP production suppressing action",[11],90 pM
B13,"IC50, cAMP production suppressing action",[10],80 pM
B14,"IC50, cAMP production suppressing action",[11],90 pM
